Experimental data from patent US5599789A, “Method for the treatment of tumours and sarcomas” (Amrad Corporation Limited, priority 1991, dated 1997).

Assays:
Type in all cases: cell-based, human
[1] = tested on: Ewing's Sarcoma cell line Al-1; test: Colony formation in semi-solid agar cultures, Al-1 cells; conditions: stimulus 100 ng, mean of duplicate colony counts, day 18
Experimental: (§1) Tumour cells obtained from biopsy and bone marrow specimens from patients with Ewing's Sarcoma were used in these studies. Approval for this project has been obtained from the Ethics Committee of the Royal Children's Hospital.
(§2) Single cell suspensions of tumour cells were obtained by mechanical disruption with an 18G or 21G needle or by pipetting, followed by incubation with dispase II (Boehringer) at a concentration of 1.2 units per ml for 10 minutes at 37° C. Prior to the addition to agar-medium the cells were vortexed gently to prevent clumping.
(§3) Clonal cell lines were grown in Iscove's Modified Dulbecco's Medium (IMDM) supplemented with 10% v/v foetal calf serum (FCS; CSL Limited, Melbourne, Australia) and were passaged either weekly or twice weekly. The characteristics of the Ewing Sarcoma cell lines used herein as described below:
(§4) Cell lines derived from the above primary cell lines (Al and Cu) are identified by an Arabic numeral (e.g. Al-1, Al-5, Al-8 or Cu-1).
(§5) The tumour cells were immobilised in 0.3% w/v agar containing Iscove's Modified Dulbecco's Medium (IMDM) and 10% v/v FCS. […] Cultures were scored for the presence of colonies (>40 cells) or clusters (<40 cells). The number of cells plated per culture ranged from 500 to 10,000 per ml. Colonies were counted on an Olympus dissecting microscope. […]

[2] = tested on: Ewing's Sarcoma cell line Al-8; test: Colony formation in semi-solid agar cultures, Al-8 cells; conditions: Al-8, 1,000 cells; stimulus 100 ng; mean of duplicate colony counts, day 18
Experimental: as §1, §2, §3, §4, §5

[3] = tested on: Ewing's Sarcoma cell line Al (uncloned); test: Colony formation in semi-solid agar cultures, Al (uncloned) cells; conditions: Al(uncloned), 5,000 cells; stimulus 100 ng; mean of duplicate colony counts, day 18
Experimental: as §1, §2, §3
The tumour cells were immobilised in 0.3% w/v agar containing Iscove's Modified Dulbecco's Medium (IMDM) and 10% v/v FCS. […] Cultures were scored for the presence of colonies (>40 cells) or clusters (<40 cells). The number of cells plated per culture ranged from 500 to 10,000 per ml. Colonies were counted on an Olympus dissecting microscope.
IL-1, IL-3, IL-4, IL-6, M-CSF, G-CSF, GM-CSF, Stem Cell Factor (SCF), TNFα, TGFα, TGFβ, EGF, aFGF, bFGF, NGF, IGF I, IGF II, PDGF and IFN-γ. […]

[4] = tested on: Ewing's Sarcoma cell line Cu-1; test: Colony formation in semi-solid agar cultures, Cu-1 cells; conditions: Cu-1, 10,000 cells; stimulus 100 ng; mean of duplicate colony counts, day 18
Experimental: as §1, §2, §3, §4, §5

B1: EGF: commercially available growth factor (protein, UniProt P01133 23-1207, looked up)
Pro-epidermal growth factor: PQHWSCPEGTLAGNGNSTCVGPAPFLIFSHGNSIFRIDTEGTNYEQLVVDAGVSVIMDFHYNEKRIYWVDLERQLLQRVFLNGSRQERVCNIEKNVSGMAINWINEEVIWSNQQEGIITVTDMKGNNSHILLSALKYPANVAVDPVERFIFWSSEVAGSLYRADLDGVGVKALLETSEKITAVSLDVLDKRLFWIQYNREGSNSLICSCDYDGGSVHISKHPTQHNLFAMSLFGDRIFYSTWKMKTIWIANKHTGKDMVRINLHSSFVPLGELKVVHPLAQPKAEDDTWEPEQKLCKLRKGNCSSTVCGQDLQSHLCMCAEGYALSRDRKYCEDVNECAFWNHGCTLGCKNTPGSYYCTCPVGFVLLPDGKRCHQLVSCPRNVSECSHDCVLTSEGPLCFCPEGSVLERDGKTCSGCSSPDNGGCSQLCVPLSPVSWECDCFPGYDLQLDEKSCAASGPQPFLLFANSQDIRHMHFDGTDYGTLLSQQMGMVYALDHDPVENKIYFAHTALKWIERANMDGSQRERLIEEGVDVPEGLAVDWIGRRFYWTDRGKSLIGRSDLNGKRSKIITKENISQPRGIAVHPMAKRLFWTDTGINPRIESSSLQGLGRLVIASSDLIWPSGITIDFLTDKLYWCDAKQSVIEMANLDGSKRRRLTQNDVGHPFAVAVFEDYVWFSDWAMPSVMRVNKRTGKDRVRLQGSMLKPSSLVVVHPLAKPGADPCLYQNGGCEHICKKRLGTAWCSCREGFMKASDGKTCLALDGHQLLAGGEVDLKNQVTPLDILSKTRVSEDNITESQHMLVAEIMVSDQDDCAPVGCSMYARCISEGEDATCQCLKGFAGDGKLCSDIDECEMGVPVCPPASSKCINTEGGYVCRCSEGYQGDGIHCLDIDECQLGEHSCGENASCTNTEGGYTCMCAGRLSEPGLICPDSTPPPHLREDDHHYSVRNSDSECPLSHDGYCLHDGVCMYIEALDKYACNCVVGYIGERCQYRDLKWWELRHAGHGQQQKVIVVAVCVVVLVMLLLLSLWGAHYYRTQKLLSKNPKNPYEESSRDVRSRRPADTEDGMSSCPQPWFVVIKEHQDLKNGGQPVAGEDGQAADGSMQPTSWRQEPQLCGMGTEQGCWIPVSSDKGSCPQVMERSFHMPSYGTQTLEGGVEKPHSLLSANPLWQQRALDPPHQMELTQ
modifications: Pro-epidermal growth factor
[1]; Al-1, 1,000 cells
  Colonies/Cultures: 41
[1]; Al-1, 10,000 cells
  Colonies/Cultures: 685
[2]
  Colonies/Cultures: 68
[3]
  Colonies/Cultures: 258
[4]
  Colonies/Cultures: 430
